Target: T1, MAGE-A11 MHD (218-429), as part of the crystallised fusion (human, UniProt P43364 218-429)
T1 construct: In the crystal it follows PCF11 677-701 and the linker GGSGRP (whole chain: m25); also called MAGE-A11 MHD (S218 to C-terminus); source: E. coli BL21(DE3), purified, on one chain with the PCF11 degron
T1 sequence (looked up): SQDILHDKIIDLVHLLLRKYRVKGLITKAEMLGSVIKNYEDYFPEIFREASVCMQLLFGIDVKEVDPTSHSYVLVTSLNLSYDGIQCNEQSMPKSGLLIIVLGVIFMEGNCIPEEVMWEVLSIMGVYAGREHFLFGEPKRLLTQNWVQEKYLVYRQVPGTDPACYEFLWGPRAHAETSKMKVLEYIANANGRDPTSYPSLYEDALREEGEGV
Experiment: crystal structure; PCF11 677-701 fused by GGSGRP to the N-terminus of MAGE-A11 MHD 218-429; sitting drop, 20 °C, 0.2 M Na acetate, 0.1 M Bis Tris propane pH 7.5, 20% PEG 3350; four protomers in the P 1 cell
Conditions: both partners purified

binding result: binds
B1: PCF11 degron peptide (human PCF11 amino acid 677-701), as part of the crystallised fusion (peptide, UniProt O94913 677-701, looked up)
chain: ITQDDFLVVVHQIRQLFQYQEGVRE
notes: PCF11, human, amino acids 677-701; In the crystal it is joined by the linker GGSGRP to the N-terminus of m27 (whole chain: m25); also called PCF11 peptide; source: E. coli BL21(DE3), purified, on one chain with MAGE-A11 MHD

Source: PMC7529893, “Structural basis for substrate recognition and chemical inhibition of oncogenic MAGE ubiquitin ligases” (Nature Communications, 2020)
